Key:
cynomolgus monkey CD16a = target: T1, cynomolgus monkey CD16a (cynomolgus monkey, UniProt Q8SPW2 17-208, limits assumed); experiment: SPR
T1 construct: also called cynomolgus monkey FcγRIIIa

[1] = target: T2, purified recombinant human NKG2D (human, UniProt P26718 78-216, limits assumed); experiment: SPR
T2 sequence (looked up): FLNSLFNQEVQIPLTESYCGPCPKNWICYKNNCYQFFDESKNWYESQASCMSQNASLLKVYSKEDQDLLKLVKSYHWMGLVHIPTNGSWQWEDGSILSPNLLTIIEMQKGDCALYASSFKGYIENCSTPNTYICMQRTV

[2] = target: T3, recombinant cynomolgus monkey NKG2D (cynomolgus monkey, UniProt P61252 78-216, limits assumed); experiment: SPR
T3 sequence (looked up): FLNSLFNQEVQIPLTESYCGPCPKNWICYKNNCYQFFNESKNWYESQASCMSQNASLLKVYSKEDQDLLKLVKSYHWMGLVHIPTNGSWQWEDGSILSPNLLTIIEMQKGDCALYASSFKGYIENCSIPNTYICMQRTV

recombinant rat NKG2D = target: T4, recombinant rat NKG2D (rat, UniProt O70215 75-215, limits assumed); experiment: SPR
T4 sequence (looked up): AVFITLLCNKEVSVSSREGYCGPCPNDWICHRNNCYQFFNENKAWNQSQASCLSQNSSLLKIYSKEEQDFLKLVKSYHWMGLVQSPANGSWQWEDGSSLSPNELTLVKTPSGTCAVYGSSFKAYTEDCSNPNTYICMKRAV

recombinant mouse NKG2D = target: T5, recombinant mouse NKG2D (mouse, UniProt O54709 94-232, limits assumed); experiment: SPR
T5 sequence (looked up): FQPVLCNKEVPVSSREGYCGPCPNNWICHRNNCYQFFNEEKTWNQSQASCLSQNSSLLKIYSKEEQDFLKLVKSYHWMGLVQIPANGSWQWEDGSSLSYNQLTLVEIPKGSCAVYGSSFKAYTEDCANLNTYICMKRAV

[3] = target: purified recombinant human FcγRI (human, UniProt P12314 16-288, limits assumed); experiment: SPR (Biacore 8K), 25 C
[4] = target: T6, purified recombinant human FcγRIIa H131 (human, UniProt P12318 36-218, limits assumed); experiment: SPR (Biacore 8K), 25 C
T6 sequence (looked up): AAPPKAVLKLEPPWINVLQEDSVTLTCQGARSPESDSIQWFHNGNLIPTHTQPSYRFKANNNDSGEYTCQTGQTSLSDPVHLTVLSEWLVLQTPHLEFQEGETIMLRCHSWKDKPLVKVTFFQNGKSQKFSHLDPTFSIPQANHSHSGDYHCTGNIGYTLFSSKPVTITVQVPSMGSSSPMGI

[5] = target: T7, purified recombinant human FcγRIIIa V158 (human, UniProt P08637 17-208); experiment: SPR (Biacore 8K), 25 C
T7 construct: also called human CD16 V158; CD16a

human NKG2D on cells = target: T8, human NKG2D on cells (human, UniProt P26718 1-216); experiment: cell-based or functional assay
T8 sequence (looked up): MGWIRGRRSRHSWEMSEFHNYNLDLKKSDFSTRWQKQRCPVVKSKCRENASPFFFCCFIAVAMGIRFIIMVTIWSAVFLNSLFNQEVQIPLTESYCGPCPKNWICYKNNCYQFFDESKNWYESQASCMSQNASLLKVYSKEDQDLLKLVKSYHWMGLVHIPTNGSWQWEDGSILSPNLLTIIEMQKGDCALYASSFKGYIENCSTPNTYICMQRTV

[6] = target: T9, human EGFR (wild type) on cells (human, UniProt P00533 25-1210); experiment: cell-based or functional assay
[7] = target: purified recombinant rat EGFR (rat, UniProt A0ABK0LZB0 35-651); experiment: SPR (Biacore 8K), 37 C
[8] = target: purified recombinant mouse EGFR (mouse, UniProt Q01279 25-647, limits assumed); experiment: SPR (Biacore 8K), 37 C
[9] = target: purified recombinant cynomolgus monkey EGFR (cynomolgus monkey, UniProt A0A2K5WK39 25-645); experiment: SPR (Biacore 8K), 37 C
[10] = target: T10, cynomolgus monkey NKG2D on NK cells (cynomolgus monkey, UniProt P61252 1-216); experiment: cell-based or functional assay
T10 sequence (looked up): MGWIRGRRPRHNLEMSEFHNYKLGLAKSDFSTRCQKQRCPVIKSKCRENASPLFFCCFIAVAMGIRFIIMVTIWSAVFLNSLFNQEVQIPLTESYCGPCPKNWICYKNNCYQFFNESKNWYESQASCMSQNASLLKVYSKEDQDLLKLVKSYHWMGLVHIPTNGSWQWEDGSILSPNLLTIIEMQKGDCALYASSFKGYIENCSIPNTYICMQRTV

[11] = target: T9, human EGFR (wild type) on cells; experiment: cell-based or functional assay; remark: listed apart in the source
[12] = target: T11, human EGFR T790M, L858R on NCI-H1975 cells (human, UniProt P00533 25-1210); experiment: cell-based or functional assay
[13] = target: T9, human EGFR (wild type) on cells; experiment: flow cytometry, HCT116 cells
[14] = target: T11, human EGFR T790M, L858R on NCI-H1975 …; experiment: flow cytometry, NCI-H1975 cells
[15] = target: T9, human EGFR (wild type) on cells; experiment: flow cytometry, NCI-H2172 cells
[16] = target: T9, human EGFR (wild type) on cells; experiment: flow cytometry, MDA-MB-453 cells

B1: EGFR-TriNKET (bispecific antibody, human IgG1, kappa)
chain: DIQMTQSPSSLSASVGDRVTITCQASQDISNYLNWYQQKPGKAPKLLIYDASNLETGVPSRFSGSGSGTDFTFTISSLQPEDIATYYCQHFRHLPLAFGCGTKVEIKGGGGSGGGGSGGGGSGGGGSQVQLQESGPGLVKPSETLSLTCTVSGGSVSSGDYYWTWIRQSPGKCLEWIGHIYYSGNTNYNPRLKSRLTISIDTSKTQFSLKLSSVTAADTAIYYCVRDRVTGAFDIWGQGTMVTVSSGSDKTHTCPPCPAPELLGGPSVFLFPPKPKDTLMISRTPEVTCVVVDVSHEDPEVKFNWYVDGVEVHNAKTKPREEQYNSTYRVVSVLTVLHQDWLNGKEYKCKVSNKALPAPIEKTISKAKGQPREPRVYTLPPCRDELTKNQVSLTCLVKGFYPSDIAVEWESNGQPENNYKTTPPVLVSDGSFTLYSKLTVDKSRWQQGNVFSCSVMHEALHNHYTQKSLSLSPG
heavy: EVQLVESGGGLVKPGGSLRLSCAASGFTFSSYSMNWVRQAPGKGLEWVSSISSSSSYIYYADSVKGRFTISRDNAKNSLYLQMNSLRAEDTAVYYCARGAPIGAAAGWFDPWGQGTLVTVSSASTKGPSVFPLAPSSKSTSGGTAALGCLVKDYFPEPVTVSWNSGALTSGVHTFPAVLQSSGLYSLSSVVTVPSSSLGTQTYICNVNHKPSNTKVDKKVEPKSCDKTHTCPPCPAPELLGGPSVFLFPPKPKDTLMISRTPEVTCVVVDVSHEDPEVKFNWYVDGVEVHNAKTKPREEQYNSTYRVVSVLTVLHQDWLNGKEYKCKVSNKALPAPIEKTISKAKGQPREPQVCTLPPSRDELTENQVSLTCLVKGFYPSDIAVEWESNGQPENNYKTTPPVLDSDGSFFLYSWLTVDKSRWQQGNVFSCSVMHEALHNHYTQKSLSLSPG
light: DIQMTQSPSSVSASVGDRVTITCRASQGISSWLAWYQQKPGKAPKLLIYAASSLQSGVPSRFSGSGSGTDFTLTISSLQPEDFATYYCQQGVSFPRTFGGGTKVEIKRTVAAPSVFIFPPSDEQLKSGTASVVCLLNNFYPREAKVQWKVDNALQSGNSQESVTEQDSKDSTYSLSSTLTLSKADYEKHKVYACEVTHQGLSSPVTKSFNRGEC
notes: also called EGFR-TriNKET-3
Kd (cynomolgus monkey CD16a): 80.9 nM
Kd [1]: 482 nM
Kd [2]: 562 nM
binding result (recombinant rat NKG2D): no binding
binding result (recombinant mouse NKG2D): no binding
Kd [3]: 5.6 nM
koff [3]: 0.00024 s⁻¹
kon [3]: 42000 M⁻¹ s⁻¹
Kd [4]: 1000 nM
Kd [5]: 53.8 nM
koff [5]: 0.011 s⁻¹
kon [5]: 200000 M⁻¹ s⁻¹
EC50, CD8+ T-cell lysis of 786-O cells (human NKG2D on cells): 0.43 nM
EC50, CD8+ T-cell lysis of NCI-H1975 cells (human NKG2D on cells): 0.17 nM
EC50, NK-dependent inhibition at 72 hours, HT29 tumor cells [6]: 0.063 nM
binding result [7]: no binding
binding result [8]: no binding
Kd [9]: 5.9 nM
koff [9]: 0.001 s⁻¹
kon [9]: 180000 M⁻¹ s⁻¹
EC50, NK cell degranulation and cytokine production, cynomolgus monkey PBMCs with 786-O [10]: 0.023 nM
EC50, NK cell degranulation and cytokine production, cynomolgus monkey PBMCs with NCI-H1975 [10]: 0.037 nM
EC50, NK cell degranulation and cytokine production, human PBMCs with 786-O [11]: 0.089 nM
EC50, NK cell degranulation and cytokine production, human PBMCs with NCI-H1975 [12]: 0.067 nM
EC50 [13]: 1.4 nM
Max FOB [13]: 300 fold over background
EC50 [14]: 2.3 nM
Max FOB [14]: 170 fold over background
EC50 [15]: 1 nM
Max FOB [15]: 140 fold over background
EC50 [16]: 0.33 nM
Max FOB [16]: 5 fold over background

Reference: patent publication US20230250176A1 (DRAGONFLY THERAPEUTICS, published 2023)
